For experiment [1], the target named is T1, human ROR1 on cells (HEK293T-hROR1, PANC-1, A549) (human, UniProt Q01973 30-937).
T1 construct: whole, on cells; one molecule for the three cell lines; also called huROR1; cell surface ROR1
As to the kind of experiment: flow cytometry on PANC-1 cells, MFI (APC-A Median). A general note: A flow cytometer gives signals particle by particle.

Experiment [2] has as its target T2, Human ROR1-ECD-his (Acro Biosystems RO1-H522y) (human, UniProt Q01973 30-406).
T2 construct: extracellular domain; bought protein; also called hROR1-ECD-his; hu-ROR1-ECD-his
Kind of experiment: BLI in-tandem, row = 1st Ab; competitor (2nd Ab): PR000374. The text has this:
(§1) To determine if anti-ROR1 antibodies bind to human ROR1 on different or approximate binding epitopes, the ForteBio Octet® RED96e platform was used to perform epitope competition experiments on the anti-ROR1 antibodies. Human ROR1 protein (Acrobiosystems, #RO1-H522y) was biotinylated and then captured onto SA biosensors (ForteBio, #18-5020) to reach loading level of 0.3-0.4 nm. The in-tandem competition assay format was applied and it contains two association steps. Firstly, the antigen-loaded biosensors bind to each antibody (a.k.a, First antibody, 1st Ab) with a saturating concentration of 200 nM for 180 seconds to reach equilibrium and then secondly bind to the competing antibodies (a.k.a, Second antibody, 2nd Ab) of 200 nM for 180 seconds. The second binding signals were recorded as the 100% signal of each antibody when the first antibodies were replaced by kinetics buffer. All the binding data were analyzed using ForteBio Data Analysis 11.0 software. The inhibition rate is calculated by the following formula: […]

The target in experiment [3] is T2, Human ROR1-ECD-his (Acro Biosystems …). As to the kind of experiment: BLI in-tandem, row = 1st Ab; competitor (2nd Ab): PR005338.
From the text: as §1

For experiment [4] the target is unchanged. Kind of experiment: BLI in-tandem, row = 1st Ab; competitor (2nd Ab): PR005340.
From the text: as §1

Experiment [5] has the same target. Kind of experiment: BLI in-tandem, row = 1st Ab; competitor (2nd Ab): PR007417.
From the text: as §1

For experiment [6] the target is unchanged. As to the kind of experiment: BLI in-tandem, row = 1st Ab; competitor (2nd Ab): PR007424.
From the text: as §1

Experiment [7] concerns the target T1, human ROR1 on cells (HEK293T-hROR1, …). As to the kind of experiment: flow cytometry on PANC-1 cells, MFI (FITC-A Median). Here is the method:
(§2) Binding of recombinant anti-ROR1 antibodies to human or cynomolgus ROR1-overexpressing cells was tested by flow cytometry. In this example, ROR1-expressing cell lines are HEK293T cell lines that had been transfected to express human ROR1 on the surface (HEK293T-hu ROR1, KYINNO BIOTECHNOLOGY CO., LTD, Catalog #KC-1018), CHO-K1 cell lines that had been transfected to express cynomolgus ROR1 (CHOK1-cyno ROR1), PANC-1 (ATCC, catalog: CRL-1469) or A549 cell lines (Shanghai Institute of Biochemistry and Cell Biology, Chinese Academy of Sciences).
(§3) In brief, anti-ROR1 antibodies were serially diluted in staining buffer (PBS containing 2% FBS). Antibody solution was incubated with 1×10⁵ cells at 4° C. for 1 hour. […] After 1-hour incubation at 4° C., cells were washed twice with staining buffer and subjected to flow cytometry. PR000374 (Bench marker 1) and non-relevant IgG isotype control (Crownbio) were used as positive and negative controls, respectively.

Experiment [8] deals with T3, cynomolgus ROR1 on CHO-K1-cynoROR1 cells (cynomolgus monkey, UniProt A0A2K5WTX7 30-937).
T3 construct: whole, on cells
Kind of experiment: flow cytometry on CHOK1-cynoROR1 cells, MFI (APC-A Median) [top panel].

Experiment [9] has as its target T3, cynomolgus ROR1 on CHO-K1-cynoROR1 cells. As to the kind of experiment: flow cytometry on CHOK1-cynoROR1 cells, MFI (APC-A Median) [middle panel, letter not given]. Here is the method:
as §2, §3

This is an account of results in US20250257130A1 (NONA BIOSCIENCES SUZHOU, published 2025).

A word on the EC50 (read off the curve): it is the concentration at which the effect is half-maximal. A high value points to a less potent agent.

T2 sequence (Q01973 30-406): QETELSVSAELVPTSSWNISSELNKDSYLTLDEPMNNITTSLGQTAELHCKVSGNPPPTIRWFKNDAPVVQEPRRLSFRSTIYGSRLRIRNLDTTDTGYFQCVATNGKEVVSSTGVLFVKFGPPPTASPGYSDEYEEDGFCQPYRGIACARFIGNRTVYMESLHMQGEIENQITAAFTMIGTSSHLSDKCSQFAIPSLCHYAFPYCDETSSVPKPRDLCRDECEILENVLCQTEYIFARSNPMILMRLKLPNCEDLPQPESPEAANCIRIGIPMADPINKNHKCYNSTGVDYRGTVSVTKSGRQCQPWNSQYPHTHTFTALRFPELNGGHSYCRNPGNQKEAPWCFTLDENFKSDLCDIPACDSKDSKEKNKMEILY
T1 sequence (Q01973 30-937): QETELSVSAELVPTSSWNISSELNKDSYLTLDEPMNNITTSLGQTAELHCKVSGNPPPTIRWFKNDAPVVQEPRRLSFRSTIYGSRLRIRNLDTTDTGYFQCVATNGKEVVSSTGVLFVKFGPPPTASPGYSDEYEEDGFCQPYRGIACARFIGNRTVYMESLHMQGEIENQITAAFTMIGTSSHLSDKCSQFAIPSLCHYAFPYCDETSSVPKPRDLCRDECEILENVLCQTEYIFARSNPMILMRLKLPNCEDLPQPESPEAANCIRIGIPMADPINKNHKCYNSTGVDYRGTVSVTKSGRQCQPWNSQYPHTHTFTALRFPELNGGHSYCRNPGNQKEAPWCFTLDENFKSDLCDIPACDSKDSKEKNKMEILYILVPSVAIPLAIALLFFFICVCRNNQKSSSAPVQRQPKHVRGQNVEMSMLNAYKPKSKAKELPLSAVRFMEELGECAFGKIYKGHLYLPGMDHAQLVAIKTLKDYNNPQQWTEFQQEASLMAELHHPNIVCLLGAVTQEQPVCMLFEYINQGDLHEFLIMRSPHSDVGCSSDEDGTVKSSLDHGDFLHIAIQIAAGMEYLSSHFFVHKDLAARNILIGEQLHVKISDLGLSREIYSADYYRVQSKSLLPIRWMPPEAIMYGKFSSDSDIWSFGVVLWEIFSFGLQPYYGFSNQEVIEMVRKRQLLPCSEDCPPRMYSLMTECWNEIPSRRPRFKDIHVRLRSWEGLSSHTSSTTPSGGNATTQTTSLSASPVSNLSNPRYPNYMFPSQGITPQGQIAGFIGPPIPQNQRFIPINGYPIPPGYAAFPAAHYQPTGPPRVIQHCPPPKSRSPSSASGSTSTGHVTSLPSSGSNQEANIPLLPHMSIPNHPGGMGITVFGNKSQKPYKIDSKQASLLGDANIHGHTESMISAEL

B1: PR000374 (antibody, human IgG1, kappa, V domains shown)
VH: EVQLVESGGGLVQPGRSLRLSCTASGSDINDYPITWVRQAPGQGLEWIGFINSGGSTWYASWVKGRFTISRDDSKSIAYLQMNSLKTEDTAVYYCARGYSTYYRDFNIWGQGTLVTVSS
VL: DIQMTQSPSSLSASVGDRVTINCQASQSIDSNLAWFQQKPGQPPKLLIYRASNLASGVPDRFSGSGSGTDFTLTISSLEAEDVATYYCLGGVGAVSYRTSFGGGTKVEIKR
notes: positive control; also called Bench marker 1
For the molecule B1, the “EC50 (read off the curve)” value in experiment [1] was roughly 5 nM; in experiment [7], roughly 8 nM; in experiment [8] it was roughly 5 nM; in [9] it was roughly 4 nM. The “Inhibition (%)” value in [2] is 111%; in experiment [3], -7.76%; in experiment [4] it was -7.48%; in experiment [5] it was -10.5%; in experiment [6], -8.53%.
